Results taken from the Immune Epitope Database (IEDB).

How the values were obtained:
HLA-A*01:01 [1] = experiment: IEDB peptide-MHC binding, purified MHC/direct/fluorescence; filed as Kd, often an IC50 or EC50 that approximates it; ≥ and ≤ were set here for values at or beyond the usual limits of such assays
HLA-A*02:01 = experiment: as above
HLA-A*03:01 = experiment: as above
HLA-A*11:01 [2] = experiment: as above
HLA-A*24:02 = experiment: as above
HLA-A*69:01 = experiment: as above
HLA-B*07:02 = experiment: as above
HLA-B*15:01 [3] = experiment: as above
HLA-B*27:05 [4] = experiment: as above
HLA-B*40:01 = experiment: as above
HLA-B*44:02 = experiment: as above
HLA-B*58:01 = experiment: as above
HLA-B*27:05 [5] = experiment: IEDB peptide-MHC binding, purified MHC/competitive/fluorescence; filed as Kd, often an IC50 or EC50 that approximates it; ≥ and ≤ were set here for values at or beyond the usual limits of such assays; settings: source organism: Vibrio vulnificus YJ016
HLA-A*02:06 [6] = experiment: IEDB peptide-MHC binding, purified MHC/direct/fluorescence; filed as Kd, often an IC50 or EC50 that approximates it; ≥ and ≤ were set here for values at or beyond the usual limits of such assays
HLA-A*30:01 [7] = experiment: as above; settings: source organism: Mycobacterium tuberculosis str. Haarlem
HLA-A*31:01 = experiment: as above
HLA-B*08:02 = experiment: as above
HLA-B*15:17 [8] = experiment: as above; settings: source organism: Mycobacterium tuberculosis
HLA-B*18:01 [9] = experiment: as above
HLA-B*38:01 = experiment: as above; settings: source organism: Mycobacterium tuberculosis str. Haarlem
HLA-B*39:01 = experiment: as above; settings: source organism: Mycobacterium tuberculosis str. Haarlem
HLA-B*46:01 = experiment: as above
HLA-B*48:01 = experiment: as above; settings: source organism: Mycobacterium tuberculosis
HLA-B*51:01 = experiment: as above; settings: source organism: Mycobacterium tuberculosis
HLA-B*57:01 [10] = experiment: as above; settings: source organism: Mycobacterium tuberculosis
HLA-A*01:01 [11] = experiment: IEDB peptide-MHC binding, purified MHC/competitive/fluorescence; filed as Kd, often an IC50 or EC50 that approximates it; ≥ and ≤ were set here for values at or beyond the usual limits of such assays; settings: source organism: Human immunodeficiency virus 1
HLA-A*02:03 [12] = experiment: as above; settings: source organism: Human immunodeficiency virus 1
HLA-A*02:06 [13] = experiment: as above; settings: source organism: Human immunodeficiency virus 1
HLA-A*11:01 [14] = experiment: as above; settings: source organism: Human immunodeficiency virus 1
HLA-A*26:02 = experiment: as above; settings: source organism: Human immunodeficiency virus 1
HLA-A*30:01 [15] = experiment: as above; settings: source organism: Human immunodeficiency virus 1
HLA-B*15:01 [16] = experiment: as above; settings: source organism: Human immunodeficiency virus 1
HLA-B*15:17 [17] = experiment: as above; settings: source organism: Human immunodeficiency virus 1
HLA-B*18:01 [18] = experiment: as above; settings: source organism: Human immunodeficiency virus 1
HLA-B*57:01 [19] = experiment: as above; settings: source organism: Human immunodeficiency virus 1
HLA-B*08:01 = experiment: IEDB peptide-MHC binding, purified MHC/direct/fluorescence; filed as Kd, often an IC50 or EC50 that approximates it; ≥ and ≤ were set here for values at or beyond the usual limits of such assays
HLA-B*15:09 = experiment: as above; settings: source organism: Vibrio cholerae V52
HLA-A*02:03 [20] = experiment: as above; settings: source organism: Influenza A virus(A/swine/Shandong/fNY/2003(H9N2))
HLA-A*02:11 = experiment: as above; settings: source organism: Influenza A virus(A/swine/Shandong/fNY/2003(H9N2))
HLA-A*02:12 = experiment: as above; settings: source organism: Influenza A virus(A/swine/Shandong/fNY/2003(H9N2))
HLA-A*02:16 = experiment: as above; settings: source organism: Influenza A virus(A/swine/Shandong/fNY/2003(H9N2))
HLA-A*02:19 = experiment: as above; settings: source organism: Influenza A virus(A/swine/Shandong/fNY/2003(H9N2))
[21] = source organism: Vibrio parahaemolyticus
[22] = source organism: Mycobacterium tuberculosis
[23] = source organism: Mycobacterium tuberculosis str. Haarlem
[24] = source organism: Vibrio cholerae
[25] = source organism: Vibrio cholerae V52
[26] = source organism: Influenza A virus (A/Viet Nam/HN/2004(H5N1))
[27] = source organism: Influenza A virus (A/Puerto Rico/8/34/Mount Sinai(H1N1))

With ISDPAFKVF as the sequence, how does the Kd (HLA-A*01:01 [1]; [21]) read?
Its Kd is at least 20 µM.

What about the Kd (HLA-A*02:01; [21]) of the same sequence?
The Kd was at least 20 µM.

What about the Kd (HLA-A*03:01; [21]) of the same sequence?
Its Kd is at least 20000 nM.

What about the Kd (HLA-A*11:01 [2]; [21]) of the same sequence?
The Kd was at least 20 µM.

What about the Kd (HLA-A*24:02; [21]) of the same sequence?
Its Kd is at least 20 µM.

What about the Kd (HLA-A*69:01; [21]) of the same sequence?
Its Kd is at least 20 µM.

And the Kd (HLA-B*07:02; [21])?
The Kd was at least 20 µM.

What about the Kd (HLA-B*15:01 [3]; [21]) of the same sequence?
Its Kd is 630 nM.

And the Kd (HLA-B*27:05 [4]; [21])?
Its Kd is at least 20 µM.

What about the Kd (HLA-B*40:01; [21]) of the same sequence?
The Kd was at least 20 µM.

What about the Kd (HLA-B*44:02; [21]) of the same sequence?
The Kd was at least 20 µM.

What about the Kd (HLA-B*58:01; [21]) of the same sequence?
Its Kd is 0.0175 µM.

How did the Kd (HLA-B*27:05 [5]) turn out when QQYTDEAPY was run?
Its Kd is at least 20 µM.

Which results are given for RGRIGRTYL?
Kd (HLA-A*01:01 [1]; [22]): ≥ 20 µM; Kd (HLA-A*02:01; [22]): ≥ 20 µM; Kd (HLA-A*02:06 [6]; [23]): ≥ 20 µM; Kd (HLA-A*03:01; [22]): ≥ 20000 nM; Kd (HLA-A*11:01 [2]; [22]): ≥ 20 µM; Kd (HLA-A*30:01 [7]): 23 nM; Kd (HLA-A*31:01; [22]): ≥ 20000 nM; Kd (HLA-A*69:01; [22]): ≥ 20 µM; Kd (HLA-B*07:02; [22]): 0.003 µM; Kd (HLA-B*08:02; [23]): ≥ 20 µM; Kd (HLA-B*15:01 [3]; [22]): ≥ 20000 nM; Kd (HLA-B*15:17 [8]): 68.7 nM; Kd (HLA-B*18:01 [9]; [22]): ≥ 20 µM; Kd (HLA-B*38:01): ≥ 20 µM; Kd (HLA-B*39:01): ≥ 20 µM; Kd (HLA-B*40:01; [22]): ≥ 20 µM; Kd (HLA-B*46:01; [22]): ≥ 20 µM; Kd (HLA-B*48:01): 3.04 µM; Kd (HLA-B*51:01): ≥ 20 µM; Kd (HLA-B*57:01 [10]): ≥ 20 µM; Kd (HLA-B*58:01; [22]): ≥ 20 µM

With RSLFNTIATLY as the sequence, how does the Kd (HLA-A*01:01 [11]) read?
The Kd was 1250 nM.

And the Kd (HLA-A*02:03 [12])?
Its Kd is 728 nM.

And the Kd (HLA-A*02:06 [13])?
The Kd was 202 nM.

And the Kd (HLA-A*11:01 [14])?
Its Kd is 255 nM.

What about the Kd (HLA-A*26:02) of the same sequence?
The Kd was 2150 nM.

What about the Kd (HLA-A*30:01 [15]) of the same sequence?
The Kd was at least 20 µM.

And the Kd (HLA-B*15:01 [16])?
The Kd was 711 nM.

What about the Kd (HLA-B*15:17 [17]) of the same sequence?
The Kd was 3 nM.

What about the Kd (HLA-B*18:01 [18]) of the same sequence?
Its Kd is 88.6 nM.

What about the Kd (HLA-B*57:01 [19]) of the same sequence?
Its Kd is 146 nM.

RVHGATVFK was tested. Which Kd (HLA-A*01:01 [1]; [24]) did it give?
The Kd was at least 20 µM.

And the Kd (HLA-A*02:01; [24])?
Its Kd is at least 20 µM.

What about the Kd (HLA-A*03:01; [24]) of the same sequence?
The Kd was 249 nM.

And the Kd (HLA-A*11:01 [2]; [24])?
Its Kd is 0.0472 µM.

What about the Kd (HLA-A*24:02; [24]) of the same sequence?
The Kd was at least 20 µM.

What about the Kd (HLA-A*31:01; [24]) of the same sequence?
Its Kd is 59.5 nM.

And the Kd (HLA-A*69:01; [24])?
Its Kd is at least 20 µM.

And the Kd (HLA-B*07:02; [24])?
The Kd was at least 20 µM.

What about the Kd (HLA-B*08:01; [25]) of the same sequence?
The Kd was at least 20 µM.

What about the Kd (HLA-B*08:02; [25]) of the same sequence?
The Kd was at least 20 µM.

What about the Kd (HLA-B*15:01 [3]; [24]) of the same sequence?
The Kd was at least 20000 nM.

What about the Kd (HLA-B*15:09) of the same sequence?
Its Kd is at least 20 µM.

And the Kd (HLA-B*18:01 [9]; [24])?
Its Kd is at least 20 µM.

What about the Kd (HLA-B*27:05 [4]; [24]) of the same sequence?
The Kd was at least 20 µM.

And the Kd (HLA-B*40:01; [24])?
The Kd was at least 20 µM.

And the Kd (HLA-B*44:02; [24])?
The Kd was at least 20 µM.

What about the Kd (HLA-B*58:01; [24]) of the same sequence?
The Kd was at least 20 µM.

How did the Kd (HLA-A*01:01 [1]; [26]) turn out when VSPLAVTWW was run?
The Kd was at least 20 µM.

And the Kd (HLA-A*02:01; [27])?
Its Kd is 1.08 µM.

And the Kd (HLA-A*02:03 [20])?
Its Kd is 29 nM.

What about the Kd (HLA-A*02:06 [6]; source organism: Influenza A virus(A/swine/Shandong/fNY/2003(H9N2))) of the same sequence?
Its Kd is at least 20 µM.

And the Kd (HLA-A*02:11)?
The Kd was 32 nM.

What about the Kd (HLA-A*02:12) of the same sequence?
Its Kd is 3.54 µM.

What about the Kd (HLA-A*02:16) of the same sequence?
Its Kd is 131 nM.

And the Kd (HLA-A*02:19)?
Its Kd is at least 20 µM.

And the Kd (HLA-A*03:01; [27])?
Its Kd is 173 nM.

What about the Kd (HLA-A*24:02; [26]) of the same sequence?
The Kd was at least 20 µM.

And the Kd (HLA-A*69:01; [26])?
Its Kd is at least 20 µM.

What about the Kd (HLA-B*07:02; [26]) of the same sequence?
The Kd was at least 20 µM.

What about the Kd (HLA-B*08:01; [26]) of the same sequence?
The Kd was at least 20 µM.

What about the Kd (HLA-B*15:01 [3]; [27]) of the same sequence?
Its Kd is 2200 nM.

What about the Kd (HLA-B*27:05 [4]; [27]) of the same sequence?
Its Kd is 0.161 µM.

What about the Kd (HLA-B*40:01; [26]) of the same sequence?
The Kd was at least 20 µM.

What about the Kd (HLA-B*44:02; [26]) of the same sequence?
Its Kd is at least 20 µM.

And the Kd (HLA-B*46:01; [26])?
Its Kd is at least 20 µM.
